According to patent US20090196880A1 (VASGENE THERAPEUTICS, published 2009):
Values belong to the binder of their own block, whether it stands above or below them.

Target: T1, EphB4 in whole cell lysate of 293 cells stably transfected with EphB4 (human, UniProt P54760 16-987)
T1 construct: Denatured protein from the lysate of transfected 293 cells (Western blot)
T1 sequence: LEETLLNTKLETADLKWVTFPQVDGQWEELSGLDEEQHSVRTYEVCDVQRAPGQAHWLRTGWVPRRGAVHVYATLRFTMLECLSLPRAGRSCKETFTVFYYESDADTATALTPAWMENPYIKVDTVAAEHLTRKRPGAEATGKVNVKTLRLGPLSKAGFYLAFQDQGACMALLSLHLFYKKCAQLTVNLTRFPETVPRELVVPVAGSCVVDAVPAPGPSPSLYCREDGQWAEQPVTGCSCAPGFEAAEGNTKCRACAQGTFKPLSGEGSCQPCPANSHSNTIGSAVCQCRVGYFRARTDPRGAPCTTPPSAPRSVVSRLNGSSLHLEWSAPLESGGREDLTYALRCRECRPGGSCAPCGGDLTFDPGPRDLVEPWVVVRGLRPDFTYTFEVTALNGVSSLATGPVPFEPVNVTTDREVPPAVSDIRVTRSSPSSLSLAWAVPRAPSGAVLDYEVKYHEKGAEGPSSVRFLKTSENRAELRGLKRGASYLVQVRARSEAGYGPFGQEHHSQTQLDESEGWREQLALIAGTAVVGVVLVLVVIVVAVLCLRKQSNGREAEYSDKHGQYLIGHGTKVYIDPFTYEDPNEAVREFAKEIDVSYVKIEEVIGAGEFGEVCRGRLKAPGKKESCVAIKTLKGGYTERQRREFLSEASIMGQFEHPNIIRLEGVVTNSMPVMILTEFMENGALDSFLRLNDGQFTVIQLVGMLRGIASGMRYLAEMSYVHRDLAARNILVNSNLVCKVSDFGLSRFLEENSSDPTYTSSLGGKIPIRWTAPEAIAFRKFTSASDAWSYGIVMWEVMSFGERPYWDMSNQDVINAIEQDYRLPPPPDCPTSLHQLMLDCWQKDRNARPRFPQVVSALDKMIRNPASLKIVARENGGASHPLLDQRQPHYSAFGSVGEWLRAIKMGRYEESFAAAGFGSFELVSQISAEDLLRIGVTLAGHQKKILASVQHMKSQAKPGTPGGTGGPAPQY
Test: Western blot on lysate of EphB4-transfected 293 cells

- binding result: binds
B1: mouse monoclonal antibody #47 (antibody, V domains shown)
VH: EVQLQQSGPELVKPGASVKISCKASGYTFTDYYMNWVKQSHGKGLEWIGDNNPNNGGTTYNQKFKGKATLTVDKSSSTAYMELRSLTSEDSAVYYCARGKYYGTSYGWYFDVWGTGTTVTVSS
VL: DIQMTQSPASLSASVGETVTITCRISDNIDSYLAWFQQKQGKSPQLLVYDATVLADGVPSRFSGSGSGTQYSLKINSLQSEDAARYYCQVYYSIPWTFGGGTKLEIK
notes: also called m47; Mu #47

- binding result: binds
B2: mouse monoclonal antibody #131 (antibody, V domains shown)
VH: QVQLKQSGAELVKPGASVKISCKASGYTFTDYYINWVKQRPGQGLEWIGKIGPRIGTNYYNENFKGKATLTADISSNTAYMQLHTLTSEDSAVYFCARSEDYSGYVSYALDYWGQGTSVTVSS
VL: NIVMTQSPKSMSMSVGERVTLSCKASENVDTYVSWYQQKPDQSPELLIYGASNRYTGVPDRFTGSGSATDFTLTISSVQAEDLADYHCGQTYRYPFTFGGGTKLEIK
notes: also called m131
